In assay [1] the target is T1, EpCAM-Fc (Sino hEpCAM_Fc #10694-H02H) (human, UniProt P16422 24-265).
T1 construct: Bought protein, called dimeric; also called dimeric antigen EpCAM-Fc; not shown: Fc part
T1 sequence (looked up): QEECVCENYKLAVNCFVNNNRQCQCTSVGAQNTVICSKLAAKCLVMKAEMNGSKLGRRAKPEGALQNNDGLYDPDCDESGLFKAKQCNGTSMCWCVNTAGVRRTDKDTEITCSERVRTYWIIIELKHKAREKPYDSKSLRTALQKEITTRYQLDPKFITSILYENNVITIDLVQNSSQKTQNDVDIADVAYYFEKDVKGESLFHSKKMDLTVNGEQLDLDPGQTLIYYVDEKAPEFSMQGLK
Put plainly: Octet BLI, Assay 1: bsAb on FAB2G sensor, dimeric EpCAM-Fc in solution, 1:1 fit. The protocol: (§1) Kinetic measurements were performed using the Octet RED96 platform (ForteBlo).
(§2) BsAb at 1.0 or 1.5 ug/ml where coupled to anti-human Fab-CH1 2nd generation (FAB2G) biosensors (Part no #18-5125 (tray)). Antigens were serially diluted % in 1× Kinetic buffer (ForteBio) to 100 nM, 50 nM, 25 nM, 12.5 nM, 6.25 nM, 3.125 nM, 1.56 nM or 0 nM. The association was followed for 300 seconds and the dissociation in 1× Kinetic buffer for 300 seconds. Sensor tips were regenerated using 10 mM glycine, pH 1.5. Data generated were referenced by subtracting a parallel buffer blank, the baseline was aligned with the y-axis, inter-step correlation by alignment against dissociation was performed and the data were smoothed by a Savitzky-Golay filter in the data analysis software (v.9.0.0.14). The processed data were fitted using a 1:1 Langmuir binding model with X2 as a measurement of fitting accuracy.
(In general: BLI is a label-free optical method that tracks binding on a fibre tip over time.)

For assay [2], the target named is T2, hEpCAM (R&D Systems #9277-EP) (human, UniProt P16422 24-265).
T2 construct: Bought protein, monomeric; also called human EpCAM; monomeric antigen EpCAM-his; not shown: His tag
T2 sequence (looked up): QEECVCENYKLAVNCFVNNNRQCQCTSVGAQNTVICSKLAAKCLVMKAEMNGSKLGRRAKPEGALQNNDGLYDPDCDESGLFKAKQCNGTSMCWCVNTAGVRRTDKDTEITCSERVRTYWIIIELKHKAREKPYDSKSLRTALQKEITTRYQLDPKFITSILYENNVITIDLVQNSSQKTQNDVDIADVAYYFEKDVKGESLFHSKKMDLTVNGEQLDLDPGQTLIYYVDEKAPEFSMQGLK
Put plainly: Octet BLI, Assay 2: bsAb on FAB2G sensor, monomeric EpCAM-his in solution, 1:1 fit. Here is the method:
as §1, §2

Assay [3] addresses T3, human EpCAM expressed on cells (human, UniProt P16422 24-314).
T3 construct: whole, on cells; also called EpCAM-transfected CHO cells; CHO-EpCAM
T3 sequence (looked up): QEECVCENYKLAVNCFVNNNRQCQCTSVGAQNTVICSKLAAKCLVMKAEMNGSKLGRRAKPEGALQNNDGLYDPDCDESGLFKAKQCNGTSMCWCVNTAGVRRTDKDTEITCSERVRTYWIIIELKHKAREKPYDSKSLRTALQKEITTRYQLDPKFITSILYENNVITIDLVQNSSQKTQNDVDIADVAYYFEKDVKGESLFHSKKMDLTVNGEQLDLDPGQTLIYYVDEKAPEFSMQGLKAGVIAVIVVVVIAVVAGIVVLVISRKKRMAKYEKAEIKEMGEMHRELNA
Put plainly: flow cytometry, biotinylated antibody titrated on EpCAM-transfected and control CHO cells, streptavidin detection. The text has this: The human EpCAM gene was cloned into pcDNA3.1, and the vector was subsequently stably transfected into CHO cells. Control CHO cells were stably transfected with and empty pcDNA3.1 vector. […] Binding of biotinylated antibodies was detected with fluorochrome-conjugated streptavidin and analysed using flow cytometry.
On the technique in general: Flow cytometry measures light scatter and fluorescence of single cells or particles in a stream.

In assay [4] the target is T4, CD40 on human peripheral blood mononuclear cells (human, UniProt P25942 21-277).
T4 construct: whole, on cells; also called CD40+ cell populations among PBMC (B cells, monocytes)
T4 sequence (P25942 21-277): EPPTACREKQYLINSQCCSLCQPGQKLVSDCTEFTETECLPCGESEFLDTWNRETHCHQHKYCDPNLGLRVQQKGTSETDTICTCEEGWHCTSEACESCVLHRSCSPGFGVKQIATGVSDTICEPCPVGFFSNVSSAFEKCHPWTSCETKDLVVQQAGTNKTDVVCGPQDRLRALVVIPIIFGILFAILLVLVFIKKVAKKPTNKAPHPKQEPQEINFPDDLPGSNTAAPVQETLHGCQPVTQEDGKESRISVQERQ
Put plainly: flow cytometry, biotinylated antibody titrated on human PBMC (B cells, monocytes, T cells, NK cells gated), streptavidin detection. The text has this: Binding of biotinylated antibodies was detected with fluorochrome-conjugated streptavidin and analysed using flow cytometry.

Assay [5] deals with T5, biotinylated hCD40 (504-030 from Ancell) (human, UniProt P25942 21-193, biotinylated).
T5 construct: Detection reagent of the dual ELISA
T5 sequence (P25942 21-193 limits assumed): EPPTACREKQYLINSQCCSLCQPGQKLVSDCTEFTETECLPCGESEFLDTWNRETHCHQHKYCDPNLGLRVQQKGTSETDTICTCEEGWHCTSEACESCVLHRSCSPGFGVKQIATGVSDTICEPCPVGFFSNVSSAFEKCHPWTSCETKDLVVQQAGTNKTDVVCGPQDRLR
Put plainly: dual ELISA, bsAb captured on plate-coated hEpCAM, detected with biotinylated hCD40 and streptavidin-HRP. The protocol: Plates were coated with 0.5 μg/mL hEpCAM (R&D Systems #9277-EP) in PBS over night at 4° C. After washing in PBS/0.05% Tween 20 (PBST), the plates were blocked with PBS/0.2% BSA for at least 30 minutes at room temperature before being washed again. Samples serially diluted from 50 nM in PBS/0.02% BSA were then added and allowed to bind for at least 1 hour at room temperature. […] Dual antigen-complexed bsAb were detected with HRP-labelled streptavidin. SuperSignal Pico Luminescent was used as substrate and luminescence signals were measured using Fluostar Optima.
A general note: In an ELISA, binding on a coated surface is turned into a signal by an enzyme label.

Assay [6] concerns the target T1, EpCAM-Fc (Sino hEpCAM_Fc #10694-H02H). Put plainly: Octet BLI, Assay 3: EpCAM-Fc coupled to AR2G sensor, bsAb in solution, 1:1 fit. The protocol:
as §1
Antigen was coupled to Amine reactive Second generation sensors (Dip and Read Amine reactive Second-Generation (AR2G) Biosensors (Part no #18-5092 (tray)) at antigen concentrations of 0.4, 1.5, 0.25 or 0.5 μg/mL. BsAb (serially diluted ½ in 1× Kinetic buffer (ForteBio) with start concentrations of 20, 15, 10 or 25 nM) were analysed for binding to antigen-coupled sensors. The association was followed for 300 seconds and the dissociation in 1× Kinetic buffer for 300 seconds. Sensor tips were regenerated using 10 mM glycine, pH 2.2. Data generated were referenced by subtracting a parallel buffer blank, the baseline was aligned with the y-axis, inter-step correlation by alignment against dissociation was performed and the data were smoothed by a Savitzky-Golay filter in the data analysis software (v.9.0.0.14). The processed data were fitted using a 1:1 Langmuir binding model with X2 as a measurement of fitting accuracy.

B1: 1132-005025.M (bispecific antibody)
VH: EVQLLESGGGLVQPGGSLRLSCAASGFTFSSYAMSWVRQAPGKGLEWVSGIGSYGGGTYYADSVKGRFTISRDNSKNTLYLQMNSLRAEDTAVYYCARYVNFGMDYWGQGTLVTVSS
VL: DIQMTQSPSSLSASVGDRVTITCRASQSISSYLNWYQQKPGKAPKLLIYAASSLQSGVPSRFSGSGSGTDFTLTISSLQPEDFATYYCQQYGRNPPTFGQGTKLEIK
scFv: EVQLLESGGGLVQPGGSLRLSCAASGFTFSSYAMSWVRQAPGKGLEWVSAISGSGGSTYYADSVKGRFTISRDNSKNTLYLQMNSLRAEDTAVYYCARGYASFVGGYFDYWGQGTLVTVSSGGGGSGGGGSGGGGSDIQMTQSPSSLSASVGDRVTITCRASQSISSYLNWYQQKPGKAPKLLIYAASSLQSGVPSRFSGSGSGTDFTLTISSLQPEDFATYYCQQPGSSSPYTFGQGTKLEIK
notes: also called CD40-EpCAM bispecific antibody in the Morrison format
As to B1, in assay [1], the affinity, expressed as Kd, was 4 nM; the koff turned out to be 0.001 s⁻¹; the kon came out at 300000 M⁻¹ s⁻¹. For the same molecule, in assay [2], the Kd was 300 nM, the koff was 0.01 s⁻¹ and the kon was determined as 30000 M⁻¹ s⁻¹.

B2: 1132.m2 (antibody, V domains shown)
VH: EVQLLESGGGLVQPGGSLRLSCAASGFTFSSYAMSWVRQAPGKGLEWVSGIGSYGGGTYYADSVKGRFTISRDNSKNTLYLQMNSLRAEDTAVYYCARYVNFGMDYWGQGTLVTVSS
VL: DIQMTQSPSSLSASVGDRVTITCRASQSISSYLNWYQQKPGKAPKLLIYAASSLQSGVPSRFSGSGSGTDFTLTISSLQPEDFATYYCQQYGRNPPTFGQGTKLEIK
notes: also called LALA-mutated agonistic monoclonal CD40 antibody
Consider B2, for which the binding result in assay [3] is on record as “no binding”; in assay [4], “binds”.

B3: 1132-3174.M (bispecific antibody, V domains shown)
VH 1: EVQLLESGGGLVQPGGSLRLSCAASGFTFSSYAMSWVRQAPGKGLEWVSGIGSYGGGTYYADSVKGRFTISRDNSKNTLYLQMNSLRAEDTAVYYCARYVNFGMDYWGQGTLVTVSS
VL 1: DIQMTQSPSSLSASVGDRVTITCRASQSISSYLNWYQQKPGKAPKLLIYAASSLQSGVPSRFSGSGSGTDFTLTISSLQPEDFATYYCQQYGRNPPTFGQGTKLEIK
VH 2: EVQLLEQSGAELVRPGTSVKISCKASGYAFTNYWLGWVKQRPGHGLEWIGDIFPGSGNIHYNEKFKGKATLTADKSSSTAYMQLSSLTFEDSAVYFCARLRNWDEPMDYWGQGTTVTVSS
VL 2: ELVMTQSPSSLTVTAGEKVTMSCKSSQSLLNSGNQKNYLTWYQQKPGQPPKLLIYWASTRESGVPDRFTGSGSGTDFTLTISSVQAEDLAVYYCQNDYSYPLTFGAGTKLEIK
notes: as for B1
In assay [1], B3 registered a Kd of 0.5 nM, a koff of 8e-05 s⁻¹ and an on-rate (kon) of 200000 M⁻¹ s⁻¹. Moreover, the binding result in assay [5] is listed as “binds”. For the same molecule, in assay [2], binding was characterised by a dissociation constant (Kd) of 500 nM, the koff came to 0.01 s⁻¹ and the kon turned out to be 20000 M⁻¹ s⁻¹.

B4: 1132-005038.M (bispecific antibody)
VH: EVQLLESGGGLVQPGGSLRLSCAASGFTFSSYAMSWVRQAPGKGLEWVSGIGSYGGGTYYADSVKGRFTISRDNSKNTLYLQMNSLRAEDTAVYYCARYVNFGMDYWGQGTLVTVSS
VL: DIQMTQSPSSLSASVGDRVTITCRASQSISSYLNWYQQKPGKAPKLLIYAASSLQSGVPSRFSGSGSGTDFTLTISSLQPEDFATYYCQQYGRNPPTFGQGTKLEIK
scFv: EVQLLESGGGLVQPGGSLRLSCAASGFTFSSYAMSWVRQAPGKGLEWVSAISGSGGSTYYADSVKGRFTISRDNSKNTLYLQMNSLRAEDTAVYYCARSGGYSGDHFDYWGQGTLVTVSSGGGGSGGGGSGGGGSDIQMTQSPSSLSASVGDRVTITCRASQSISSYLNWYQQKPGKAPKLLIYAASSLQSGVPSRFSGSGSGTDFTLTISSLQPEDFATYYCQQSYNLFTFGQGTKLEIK
notes: as for B1
In assay [1], B4 yielded a Kd of 6 nM, a koff of 0.002 s⁻¹ and a kon of 300000 M⁻¹ s⁻¹. In assay [2], this molecule returned a Kd of 1000 nM, an off-rate constant (koff) of 0.01 s⁻¹ and a kon of 8000 M⁻¹ s⁻¹.

B5: 1132-3188.M (bispecific antibody, V domains shown)
VH 1: EVQLLESGGGLVQPGGSLRLSCAASGFTFSSYAMSWVRQAPGKGLEWVSGIGSYGGGTYYADSVKGRFTISRDNSKNTLYLQMNSLRAEDTAVYYCARYVNFGMDYWGQGTLVTVSS
VL 1: DIQMTQSPSSLSASVGDRVTITCRASQSISSYLNWYQQKPGKAPKLLIYAASSLQSGVPSRFSGSGSGTDFTLTISSLQPEDFATYYCQQYGRNPPTFGQGTKLEIK
VH 2: EVQLVQSGPGLVQPGGSVRISCAASGYTFTNYGMNWVKQAPGKGLEWMGWINTYTGESTYADSFKGRFTFSLDTSASAAYLQINSLRAEDTAVYYCARFAIKGDYWGQGTLLTVSS
VL 2: DIQMTQSPSSLSASVGDRVTITCRSTKSLLHSNGITYLYWYQQKPGKAPKLLIYQMSNLASGVPSRFSSSGSGTDFTLTISSLQPEDFATYYCAQNLEIPRTFGQGTKVELK
notes: also called CD40-EpCAM bispecific antibody in the Morrison format; 3188 = 4D5MOCB = BM1
Regarding B5, in assay [1], the Kd was < 0.001 nM, the koff was < 1e-07 s⁻¹ and the kon was 300000 M⁻¹ s⁻¹. In assay [2], this molecule returned a Kd of 30 nM, a koff of 0.004 s⁻¹ and a kon of 100000 M⁻¹ s⁻¹.

B6: 1132-3174.R (bispecific antibody)
chain 1: not shown
chain 2: ELVMTQSPSSLTVTAGEKVTMSCKSSQSLLNSGNQKNYLTWYQRKPGQPPKLLIYWASTRESGVPDRFTGSGSGTDFTLTISSVQAEDLAVYYCQNDYSYPLTFGAGTKLEIK
chain 3: DIQMTQSPSSLSASVGDRVTITCRASQSISSYLNWYQEKPGKAPKLLIYAASSLQSGVPSRFSGSGSGTDFTLTISSLQPEDFATYYCQQYGRNPPTFGQGTKLEIKRTVAAPSVFIFPPSDEQLKSGTASVVCYLNNFYPREAKVQWKVDNALQSGNSQESVTEQDSKDSTYSLWSTLTLSKADYEKHKVYACEVTHQGLSSPVTKSFNRGEC
chain 4: EVQLLEQSGAELVRPGTSVKISCKASGYAFTNYWLGWVKERPGHGLEWIGDIFPGSGNIHYNEKFKGKATLTADKSSSTAYMQLSSLTFEDSAVYFCARLRNWDEPMDYWGQGTTVTVSSASTKGPSVFPLAPSSKSTSGGTAALGCLVKDYFPEPVTVSWNSGALTSGVHTFPAVLQSSGLYSLSSVVEVPSSSLGTQTYICNVNHKPSNTKVDKKVEPKSC
As for B6, in assay [6], binding was put at a Kd of 8 nM, the koff amounted to 0.001 s⁻¹ and the kon was determined as 100000 M⁻¹ s⁻¹.

A word on the Kd: it is a measure of binding affinity in units of concentration. Read a high Kd as lower affinity. For orientation: koff means the first-order rate constant of dissociation. For orientation: kon means the rate constant with which the complex forms. Lower therefore signals slow association.

Values taken from patent US20220073635A1 (ALLIGATOR BIOSCIENCE, published 2022).
